Measurements from article doi:10.1101/2021.08.19.456998, “Structures of the Human SPAK and OSR1 Conserved C-Terminal (CCT) Domains” (bioRxiv, 2021).
Where no end group is shown, it is not given here. The star is where a group is joined. Biotin = O=C1N[C@H]2[C@H](CS[C@H]2CCCCC(=O)*)N1

T1: Biotin-C6-SEEGKPQLVGRFQVTSSK (N-terminally biotinylated 18-mer RFQV peptide derived from WNK4) (human)
T1 construct: With No Lysine kinase 4 (WNK4), 18-mer with the RFQV motif; also called biotinylated 18-mer peptide; biotin 18-mer peptide; source: synthetic peptide, bought: GL Biochem, Shanghai Ltd
T1 peptide: {Biotin-C6}-SEEGKPQLVGRFQVTSSK


What was measured:
Settings in all cases: both partners purified
[1] = target: T1, Biotin-C6-SEEGKPQLVGRFQVTSSK …; experiment: grating-coupled interferometry (Creoptix WAVE); waveRAPID; biotin-C6-18-mer peptide captured on streptavidin chip (about 400 pg/mm^2), cleaved SPAK or OSR1 as analyte at 2 µM; 25°C, HBS EP; heterogeneous ligand model for SPAK
[2] = target: T1, Biotin-C6-SEEGKPQLVGRFQVTSSK …; experiment: grating-coupled interferometry (Creoptix WAVE); traditional multicycle kinetics; biotin-C6-18-mer peptide captured on streptavidin chip, cleaved OSR1 as analyte, 25 µM in 1:3 dilutions (six points); 25°C, HBS EP
[3] = target: T2, biotin-SPAK (uncleaved human SPAK CCT domain, residues 441-545, biotinylated on the AviTag) (human, biotin on the lysine of the AviTag (…)); experiment: grating-coupled interferometry (Creoptix WAVE); traditional multicycle kinetics; biotin-SPAK or biotin-OSR immobilised on streptavidin chip, 18-mer peptide as analyte, 50 µM in 3-fold dilutions (six points); 25°C, HBS EP; one-to-one fit
T2 construct: STE20/SPS1-related proline/alanine-rich kinase (SPAK), human, conserved C-terminal (CCT) domain, residues 441-545; the TEV site was not cut in this form; also called hSPAK-CCT; source: E. coli BL21-CodonPlus (DE3)-RIL, purified (HisTrap, SEC), biotinylated with BirA; not shown: His6, N-terminal, kept; AviTag, N-terminal, kept

[4] = target: T2, biotin-SPAK (uncleaved human SPAK CCT …); experiment: grating-coupled interferometry (Creoptix WAVE); waveRAPID; biotin-SPAK or biotin-OSR immobilised on streptavidin chip (about 1000 pg/mm^2), 18-mer peptide as analyte at 5 µM; 25°C, HBS EP (10 mM HEPES pH 7.4, 150 mM NaCl, 3 mM EDTA, 0.005% Tween20); 1:1 kinetic model, global fit
[5] = target: T3, biotin-OSR (uncleaved human OSR1 CCT domain, residues 423-527, biotinylated on the AviTag) (human, biotin on the lysine of the AviTag (…)); experiment: as above
T3 construct: Oxidative Stress Responsive 1 (OSR1) kinase, human, conserved C-terminal (CCT) domain, residues 423-527; the TEV site was not cut in this form; also called hOSR1-CCT; hOSR-CCT; source: E. coli BL21-CodonPlus (DE3)-RIL, purified (HisTrap, SEC), biotinylated with BirA; not shown: His6, N-terminal, kept; AviTag, N-terminal, kept
T3 sequence (chain, as listed by the source): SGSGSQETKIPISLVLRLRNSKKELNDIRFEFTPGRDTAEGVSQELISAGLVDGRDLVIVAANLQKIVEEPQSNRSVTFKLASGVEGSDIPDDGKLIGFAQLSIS

Row | Kd [1] [µM] | Kd [2] [µM] | Kd [3] [µM] | Kd [4] [µM] | Kd [5] [µM] | Binder
1 | 2.1 | 6.6 |  |  |  | cleaved OSR1 (human OSR1 CCT domain, residues 423-527, tags removed with TEV protease) (domain or fragment, glycine of the TEV site (ENLYFQ/G) left after cleavage; OSR1, human, CCT domain, residues 423-527; also called cleaved hOSR1-CCT; hOSR1-CCT; source: E. coli BL21-CodonPlus (DE3)-RIL, purified (HisTrap, SEC, TEV cleavage, SEC in HBS EP); not shown: His6, N-terminal, cleaved; AviTag, N-terminal, cleaved) not shown
2 |  |  | 1.16 | 1.1 | 2.5 | SEEGKPQLVGRFQVTSSK (With No Lysine kinase 4 (WNK4), 18-mer with the RFQV motif; also called 18-mer peptide; RFQV 18-mer peptide; source: synthetic peptide, bought: GL Biochem, Shanghai Ltd) [18-mer RFQV peptide derived from WNK4 (SEEGKPQLVGRFQVTSSK), unbiotinylated]
